Source: US20030088075A1 (Kyowa Kirin, published 2003)
Numbering of substitutions follows the chain as printed.

B1: anti-human VEGF receptor Flt-1 mouse monoclonal antibody KM1750 (antibody, mouse IgG2b, V domains shown)
VH: QAFLQQSGAELVRPGASVKMSCKASGYTFINYNMHWVKQTPRQGLEWIGAIFPGNGFTSYNQKFKGKATLTVDKSSSTVYMQLRSLTSEDSAVYFCARDGDYYFDYWGQGTTLTVSS
VL: QIVLTQSPAIMSASLGEEITLTCSASSSVSYMHWYQQKSGTSPKLLIYRTSNLASGVPFRFSGSGSGTFYSLTISSVEAEDAADYYCHQWSMYTFGGGTKLEIK
notes: mouse IgG2b; hybridoma FERM BP-5700; Used labeled with biotin on HUVEC; also called biotinated KM1750
B2: anti-human VEGF receptor Flt-1 human chimeric antibody KM2550 (antibody, V domains shown)
VH: B1 VH
VL: B1 VL
notes: V regions of KM1750 joined to the human antibody C regions of vector pKANTEX93; IgG type; also called p42550 [sic]
B3: anti-human VEGF receptor Flt-1 mouse monoclonal antibody KM1732 (antibody, mouse IgG1, V domains shown)
VH: QGQMQQSGAELVKPGASVKLSCKPSGFTFSSNYISWLKQKPGQSLEWIAWIYAGTGDASYNQKFTAKAHVTVDTSSSTAYMQLSSLTTEDSAIYYCARHGGDGYWFAYWGQGTLVTVSA
VL: QLVLTQSPAIMSASQGEKVTMTCSASSSVSYMHWYQQKSGTSPKRWIYDTSKLPSGVPARFSGSGSGTSYSLTISSMEAEDAATYYCQQWSSNPPTFGAGTKLELK
notes: mouse IgG1; hybridoma FERM BP-5698
B4: anti-human VEGF receptor Flt-1 human chimeric antibody KM2532 (antibody, V domains shown)
VH: B3 VH
VL: B3 VL
notes: V regions of KM1732 joined to the human antibody C regions of vector pKANTEX93 (WO 97/10354); IgG type of about 150 kDa; Expressed in YB2/0 cells; also called p42532 [sic]
B5: anti-human VEGF receptor Flt-1 human CDR-grafted antibody KM8550 (antibody, V domains shown)
VH: QVQLVQSGAEVKKPGASVKVSCKASGYTFINYNMHWVRQAPGQGLEWMGAIFPGNGFTSYNQKFKGRVTITVDKSTSTAYMELSSLRSEDTAVYYCARDGDYYFDYWGQGTLVTVSS
VL: DIQMTQSPSSLSASVGDRVTITCSASSSVSYMHWYQQKPGKAPKLLIYRTSNLASGVPSRFSGSGSGTDFTLTISSLQPEDFATYYCHQWSMYTFGQGTKVEIK
notes: also called pKANTEX1750HV0LV0(I)
B6: anti-human VEGF receptor Flt-1 human CDR-grafted antibody KM8551 (antibody, V domains shown)
VH: B5 VH
VL: DIVMTQSPDSLAVSLGERATINCSASSSVSYMHWYQQKPGQPPKLLIYRTSNLASGVPDRFSGSGSGTDFTLTISSLQAEDVAVYYCHQWSMYTFGQGTKVEIK
notes: also called pKANTEX1750HV0LV0(IV)
B7: anti-human VEGF receptor Flt-1 human CDR-grafted antibody KM8554 (antibody, V domains shown)
VH: B5 VH
VL: B5 VL with D17E, R18E, D69F, F70Y
notes: also called pKANTEX1750HV0LV4
B8: anti-human VEGF receptor Flt-1 human CDR-grafted antibody KM8552 (antibody, V domains shown)
VH: B5 VH with E82Q, S84R, Y95F
VL: B5 VL
notes: also called pKANTEX1750HV3LV0(I)
B9: anti-human VEGF receptor Flt-1 human CDR-grafted antibody KM8555 (antibody, V domains shown)
VH: B5 VH with E82Q, S84R, Y95F
VL: B5 VL with D17E, R18E, D69F, F70Y
notes: also called pKANTEX1750HV3LV4
B10: anti-human VEGF receptor Flt-1 human CDR-grafted antibody KM8553 (antibody, V domains shown)
VH: B5 VH with E82Q, S84R, Y95F
VL: B6 VL
notes: also called pKANTEX1750HV3LV0(IV)

Molecular target: T1, soluble human VEGF receptor KDR 7N (human, UniProt P35968 20-757)
T1 construct: range 20-757; Purity 70 to 80%; not shown: two amino acid residues derived from a linker
Assay: ELISA, antigen coated at 4 µg/ml
Experimental: First, the reactivity of anti-human VEGF receptor Fit-i mouse monoclonal antibodies KM1732 and KM1750 and anti-human VEGF receptor Flt-1 human chimeric antibodies KM2532 and KM2550 was compared using an immunoassay method. Each of Flt-1 7N, Flt-1 3N, Flt-1 2N, Flt-1 7N.K2 and KDR 7N diluted to 4 μg/ml with PBS was dispensed in 50 μl portions into wells of a 96 well plate for EIA (manufactured by Greiner) and allowed to stand overnight at 4° C. for its adsorption. After washing the plate with PBS, 100 μl of 1% BSA-PBS was added to each well, and the remaining active groups was blocked by carrying out the reaction at room temperature for 1 hour. After discarding 1% BSA-PBS, each of the purified anti-human VEGF receptor Flt-1 mouse monoclonal antibodies KM1732 and KM1750 or purified anti-human VEGF receptor Flt-1 human chimeric antibodies KM2532 and KM2550, having a concentration of from 0.1 μg/ml, was dispensed in 50 μl portions into the resulting wells to carry out the reaction at room temperature for 1 hour.

T1 sequence (P35968 20-757): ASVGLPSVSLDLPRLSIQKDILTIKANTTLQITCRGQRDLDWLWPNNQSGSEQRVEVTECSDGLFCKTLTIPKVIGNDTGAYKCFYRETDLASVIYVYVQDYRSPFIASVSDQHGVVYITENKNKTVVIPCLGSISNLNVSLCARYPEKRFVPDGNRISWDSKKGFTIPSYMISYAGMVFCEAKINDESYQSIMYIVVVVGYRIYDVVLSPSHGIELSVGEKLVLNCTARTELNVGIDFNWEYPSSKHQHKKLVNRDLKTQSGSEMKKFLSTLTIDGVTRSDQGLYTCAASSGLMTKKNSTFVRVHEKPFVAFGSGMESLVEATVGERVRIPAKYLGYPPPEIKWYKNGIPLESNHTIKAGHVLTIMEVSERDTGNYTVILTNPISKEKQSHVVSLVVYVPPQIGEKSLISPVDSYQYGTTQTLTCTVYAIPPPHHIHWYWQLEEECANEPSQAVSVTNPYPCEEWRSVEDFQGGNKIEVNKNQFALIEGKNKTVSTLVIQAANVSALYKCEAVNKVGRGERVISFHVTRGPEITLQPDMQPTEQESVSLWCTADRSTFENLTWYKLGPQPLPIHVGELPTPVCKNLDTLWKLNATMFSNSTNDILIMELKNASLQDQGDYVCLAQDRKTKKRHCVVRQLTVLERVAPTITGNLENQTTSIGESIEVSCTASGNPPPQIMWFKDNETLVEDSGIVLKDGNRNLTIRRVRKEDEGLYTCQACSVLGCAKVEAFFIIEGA

| Binder | binding result |
| --- | --- |
| B1 | no binding (tested: 0.1 µg/ml antibody) |
| B2 | no binding (tested: 0.1 µg/ml antibody) |
| B3 | no binding (tested: 0.1 µg/ml antibody) |
| B4 | no binding (tested: 0.1 µg/ml antibody) |

Molecular target: T1, soluble human VEGF receptor KDR 7N
Assay: enzyme immunoassay, antigen coated at 10 µg/ml
Description: Next, in order to examine binding specificity of anti-human VEGF receptor Flt-1 human CDR-grafted antibodies KM8550, KM8551, KM8552, KM8553, KM8554 and KM8555 and anti-human VEGF receptor Flt-1 human chimeric antibody KM2550, their reactivity for five soluble human VEGF receptor derivative proteins Flt-1 7N, Flt-1 3N, Flt-1 2N (WO 98/22616), Flt-1 7N.K2 [2(6-5) of Example 2] and KDR 7N [2(6-5) of Example 2] was examined using an enzyme immunoassay. Concentration of each soluble human VEGF receptor derivative protein to be adsorbed on a 96 well plate for EIA was fixed to 10 μg/ml (3-fold dilution), and the antibody concentration was fixed to 5 μg/ml.

| Binder | binding result |
| --- | --- |
| B5 | no binding (tested: 5 µg/ml antibody) |
| B6 | no binding (tested: 5 µg/ml antibody) |
| B7 | no binding (tested: 5 µg/ml antibody) |
| B8 | no binding (tested: 5 µg/ml antibody) |
| B9 | no binding (tested: 5 µg/ml antibody) |
| B10 | no binding (tested: 5 µg/ml antibody) |

Molecular target: T2, soluble human VEGF receptor Flt-1 7N (human, UniProt P17948 27-750)
T2 construct: range 1-750; Secreted from baculovirus-infected High Five insect cells and purified on heparin-Sepharose; also called Flt 7N; soluble human Flt-1 7N
Assay: purified antibody; inhibition of 125I-VEGF binding to coated Flt-1 7N
Experimental: (§1) Methanol was dispensed in 100 μl portions into wells of a 96 well MultiScreen-IP Plate (manufactured by Millipore) to give hydrophilic nature to the PVDF membrane on the bottom of the plate. After washing with water, the soluble human VEGF receptor Flt-1 7N diluted with PBS to a concentration of 1.6 μg/ml was dispensed in 50 μl/well portions and then allowed to stand overnight at 4° C. for its adsorption. After washing, PBS containing 1% bovine serum albumin (BSA) is dispensed in 50 μl/well portions and the reaction was carried out at room temperature for 1 hour to block the remained active groups. After washing with PBS, each hybridoma culture supernatant or a purified monoclonal antibody diluted with 1% BSA-PBS containing 0.5 M NaCl (0.01 to 7.29 μg/ml) was dispensed in 50 μl/well portions and then 3 ng/ml of ¹²⁵I-labeled human VEGF (manufactured by Amersham) was dispensed in 50 μl/well portions, subsequently carrying out the reaction at room temperature for 1.5 hours. After washing with 0 05% Tween-PBS, the wells were dried at 50° C., and Microscinti-0 (manufactured by Packard) was dispensed in 30 μl/well portions to measure the radioactivity of the ¹²⁵I-labeled human VEGF linked to each well using Top Count (manufactured by Packard).

T2 sequence (P17948 27-750 limits assumed, form in doubt): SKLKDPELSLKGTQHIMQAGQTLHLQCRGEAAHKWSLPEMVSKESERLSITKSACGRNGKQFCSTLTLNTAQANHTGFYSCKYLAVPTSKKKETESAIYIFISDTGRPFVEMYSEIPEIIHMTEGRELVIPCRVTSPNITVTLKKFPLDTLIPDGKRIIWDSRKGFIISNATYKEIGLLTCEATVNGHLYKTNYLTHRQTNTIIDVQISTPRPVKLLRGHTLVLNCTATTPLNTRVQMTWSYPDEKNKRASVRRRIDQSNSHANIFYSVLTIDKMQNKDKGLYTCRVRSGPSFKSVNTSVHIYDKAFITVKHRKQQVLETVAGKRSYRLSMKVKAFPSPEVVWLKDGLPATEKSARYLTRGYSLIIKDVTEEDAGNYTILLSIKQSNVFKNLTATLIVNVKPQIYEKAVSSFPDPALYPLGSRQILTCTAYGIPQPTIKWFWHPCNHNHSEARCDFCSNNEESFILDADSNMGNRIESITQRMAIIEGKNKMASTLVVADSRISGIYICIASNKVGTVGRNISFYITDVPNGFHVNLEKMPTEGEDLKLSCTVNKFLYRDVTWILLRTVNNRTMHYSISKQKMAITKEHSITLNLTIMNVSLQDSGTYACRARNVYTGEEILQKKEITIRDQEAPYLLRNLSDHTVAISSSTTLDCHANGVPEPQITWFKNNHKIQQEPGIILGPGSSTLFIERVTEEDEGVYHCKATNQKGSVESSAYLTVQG

| Binder | IC50 [µg/mL] |
| --- | --- |
| B1 | 2 |
| B3 | 1.1 |

Molecular target: T3, human VEGF receptor Flt-1 expressed on cells (human, UniProt P17948 27-1338)
T3 construct: whole, on cells; also called NIH3T3-Flt-1; human VEGF receptor Flt-1 expression cells
Assay: purified antibody; inhibition of 125I-VEGF binding to NIH3T3-Flt-1 cells
Experimental: PBS containing 1% bovine serum albumin (BSA) was dispensed in 100 μl portions into wells of a 96 well MultiScreen-HV Plate (manufactured by Millipore), the reaction was carried out at room temperature for 1 hour to block the active groups in the wells and then NIH3T3-Flt-1 cells suspended in 1% BSA-PBS containing 0.05% NaN₃ were dispensed in 5×10⁴ cells/well portions. After washing with 1% BSA-PBS, a purified monoclonal antibody (0.01 to 7.29 μg/ml) was dispensed in 50 μl/well portions and then 3 ng/ml of ¹²⁵I-labeled human VEGF (manufactured by Amersham) was dispensed in 50 μl/well portions and the reaction was carried out under cooling for 2 hours. After washing with PBS, the wells were dried at 50° C., and Microscinti-0 (manufactured by Packard) was dispensed in 30 μl/well portions to measure the radioactivity of the ¹²⁵I-labeled human VEGF linked to each well using Top Count (manufactured by Packard).

T3 sequence (P17948 27-1338): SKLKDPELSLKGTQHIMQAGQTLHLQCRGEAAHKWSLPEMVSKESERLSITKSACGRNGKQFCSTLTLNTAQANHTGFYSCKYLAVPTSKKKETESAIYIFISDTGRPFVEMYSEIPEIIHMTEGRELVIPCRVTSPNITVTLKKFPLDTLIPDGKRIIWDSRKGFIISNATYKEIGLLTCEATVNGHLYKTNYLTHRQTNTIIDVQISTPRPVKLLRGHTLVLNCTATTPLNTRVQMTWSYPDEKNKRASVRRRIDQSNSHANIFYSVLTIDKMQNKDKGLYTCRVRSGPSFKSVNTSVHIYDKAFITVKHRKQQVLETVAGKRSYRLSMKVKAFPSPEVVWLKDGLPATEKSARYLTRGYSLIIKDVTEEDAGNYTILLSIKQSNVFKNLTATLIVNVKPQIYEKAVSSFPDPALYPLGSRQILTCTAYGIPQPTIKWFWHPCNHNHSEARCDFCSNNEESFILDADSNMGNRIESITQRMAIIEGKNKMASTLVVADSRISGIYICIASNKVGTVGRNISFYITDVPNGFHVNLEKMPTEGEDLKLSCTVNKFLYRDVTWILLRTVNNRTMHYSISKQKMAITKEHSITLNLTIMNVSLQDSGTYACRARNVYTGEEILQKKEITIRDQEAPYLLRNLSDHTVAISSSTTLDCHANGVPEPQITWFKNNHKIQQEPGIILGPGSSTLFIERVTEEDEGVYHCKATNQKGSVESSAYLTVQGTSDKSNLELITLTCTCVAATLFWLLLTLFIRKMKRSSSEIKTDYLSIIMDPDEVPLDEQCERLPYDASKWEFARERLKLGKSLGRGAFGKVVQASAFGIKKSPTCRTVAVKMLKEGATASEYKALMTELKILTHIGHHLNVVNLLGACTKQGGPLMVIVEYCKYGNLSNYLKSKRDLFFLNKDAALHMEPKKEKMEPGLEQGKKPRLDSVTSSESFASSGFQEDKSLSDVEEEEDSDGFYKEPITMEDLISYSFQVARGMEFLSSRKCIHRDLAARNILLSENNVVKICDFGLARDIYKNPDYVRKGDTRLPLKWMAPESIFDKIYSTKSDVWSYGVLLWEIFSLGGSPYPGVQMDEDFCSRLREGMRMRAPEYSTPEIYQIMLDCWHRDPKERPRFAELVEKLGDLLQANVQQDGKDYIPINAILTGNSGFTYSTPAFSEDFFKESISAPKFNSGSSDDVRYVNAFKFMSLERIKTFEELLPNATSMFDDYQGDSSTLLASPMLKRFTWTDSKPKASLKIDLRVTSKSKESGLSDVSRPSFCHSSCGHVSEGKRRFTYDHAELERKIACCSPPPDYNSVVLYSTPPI

| Binder | IC50 [µg/mL] |
| --- | --- |
| B1 | 0.041 |
| B3 | 0.05 |

Molecular target: T2, soluble human VEGF receptor Flt-1 7N
Assay: hybridoma culture supernatant; inhibition of 125I-VEGF (3 ng/ml) binding to coated Flt-1 7N
Experimental: as §1

| Binder | inhibition ratio [%] |
| --- | --- |
| B1 | 66.3 |
| B3 | 83.1 |
